Positions count from the first letter of the chain named. Names may count otherwise. Each block holds one molecule with its values, some of them ahead of it.
What was measured:
[1] = target: EXO1-FLAG, full length, as printed for Fig. 3h and Fig. 6d (UniProt Q9UQ84); assay: pull-down (anti-FLAG immobilised EXO1-FLAG, Western blot quantification); details: n = 3 independent experiments, parent: est. 1.0, read off a plot
[2] = target: T1, EXO1-FLAG, full length, for Fig. 3h and Fig. 6d, Q9UQ84; assay: as above; details: chain shown with the change; n = 3 independent experiments; p < 0.0001 vs WT; parent: est. 1.0; read off a plot
T1 chain: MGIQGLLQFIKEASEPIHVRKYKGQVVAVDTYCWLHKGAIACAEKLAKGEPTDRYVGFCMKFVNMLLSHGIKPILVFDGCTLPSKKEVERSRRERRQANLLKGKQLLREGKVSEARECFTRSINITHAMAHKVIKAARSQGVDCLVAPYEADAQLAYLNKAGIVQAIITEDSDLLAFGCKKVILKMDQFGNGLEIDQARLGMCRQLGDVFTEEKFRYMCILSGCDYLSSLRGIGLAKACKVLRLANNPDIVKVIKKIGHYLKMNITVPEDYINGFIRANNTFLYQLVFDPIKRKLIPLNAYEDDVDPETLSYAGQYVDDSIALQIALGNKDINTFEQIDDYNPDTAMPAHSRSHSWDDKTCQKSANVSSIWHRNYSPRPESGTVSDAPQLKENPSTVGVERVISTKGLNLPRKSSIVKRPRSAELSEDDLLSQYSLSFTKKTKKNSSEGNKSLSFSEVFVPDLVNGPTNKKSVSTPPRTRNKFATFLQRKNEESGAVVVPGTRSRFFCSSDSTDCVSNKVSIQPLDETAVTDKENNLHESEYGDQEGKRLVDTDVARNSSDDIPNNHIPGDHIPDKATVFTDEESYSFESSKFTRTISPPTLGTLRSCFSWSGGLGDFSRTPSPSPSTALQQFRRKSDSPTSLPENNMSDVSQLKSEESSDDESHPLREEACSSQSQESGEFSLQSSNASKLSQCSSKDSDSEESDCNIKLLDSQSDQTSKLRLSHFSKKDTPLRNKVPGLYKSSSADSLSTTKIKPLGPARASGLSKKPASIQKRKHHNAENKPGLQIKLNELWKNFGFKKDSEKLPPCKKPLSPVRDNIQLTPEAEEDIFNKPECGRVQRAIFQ

Human MutLγ (MLH1-MLH3) = target: T2, Human MutLγ (MLH1-MLH3) (human, UniProt P40692 1-756; Q9UHC1 1-1453); assay: pull-down; MutLγ (bait, 1 μg) held by anti-MLH1 antibody on protein G magnetic beads; EXO1-FLAG variants (prey, 1 μg) added; 25 mM Tris-HCl pH 7.5, 3 mM EDTA, 1 mM DTT, 20 μg/ml BSA, 50 mM NaCl, 4 °C, 1 h; washes with 100 mM NaCl, 0.05% Triton X-100; Western blot; details: both partners purified
T2 construct: MLH1, human, from pFB-FLAG-hMLH1co; MLH3, human, from pFB-His-MBP-hMLH3co; The methods say that the MBP tag was cleaved with PreScission protease; also called FLAG-MLH1 and MBP-MLH3; FLAG-MLH1-MBP-MLH3; source: Sf9, purified (amylose resin, M2 anti-FLAG resin); not shown: FLAG, N-terminal, kept; MBP, N-terminal, kept

- ratio to parent ([1]; p = 0.22 vs WT): 0.66 arb. units
Molecule: Human MutSγ (MSH4-MSH5) (from UniProt O15457;O43196) MSH4:F225E

- binding result (Human MutLγ (MLH1-MLH3)): binds
B3: EXO1 (D173A I403E)-FLAG (enzyme, human, UniProt Q9UQ84 1-846, looked up)
chain: T1 chain with D173A, I403E
notes: EXO1, human, derivative of pFB-MBP-PP-EXO1(D173A)-1xFLAG; also called EXO1 (I403E); source: Sf9, purified (amylose resin, PreScission cleavage, FLAG M2 resin); not shown: MBP, N-terminal, cleaved; FLAG, C-terminal, kept

Second part, the molecule before the results:

Molecule: Human MutSγ (MSH4-MSH5) (from UniProt O15457;O43196) MSH4:F225E; MSH4:F288E
- ratio to parent ([1]; p = 0.005 vs WT): 0.2 arb. units

Molecule: Human MutSγ (MSH4-MSH5) (from UniProt O15457;O43196) MSH4:F288E
- ratio to parent ([1]; p = 0.19 vs WT): 0.73 arb. units

B1: Human MutSγ (MSH4-MSH5), O15457;O43196 MSH4:T238E; MSH4:Y244D; MSH4:F288E (protein)
chain 1: MLRPEISSTSPSAPAVSPSSGETRSPQGPRYNFGLQETPQSRPSVQVVSASTCPGTSGAAGDRSSSSSSLPCPAPNSRPAQGSYFGNKRAYAENTVASNFTFGASSSSARDTNYPQTLKTPLSTGNPQRSGYKSWTPQVGYSASSSSAISAHSPSVIVAVVEGRGLARGEIGMASIDLKNPQIILSQFADNTTYAKVITKLKILSPLEIIMSNTACAVGNSTKLFTLITENFKNVNFETIQRKDFNETKGLEYIEQLCIAEFSTVLMEVQSKYYCLAAVAALLKYVEEIQNSVYAPKSLKICFQGSEQTAMIDSSSAQNLELLINNQDYRNNHTLFGVLNYTKTPGGSRRLRSNILEPLVDIETINMRLDCVQELLQDEELFFGLQSVISRFLDTEQLLSVLVQIPKQDTVNAAESKITNLIYLKHTLELVDPLKIAMKNCNTPLLRAYYGSLEDKRFGIILEKIKTVINDDARYMKGCLNMRTQKCYAVRSNINEFLDIARRTYTEIVDDIAGMISQLGEKYSLPLRTSFSSARGFFIQMTTDCIALPSDQLPSEFIKISKVKNSYSFTSADLIKMNERCQESLREIYHMTYMIVCKLLSEIYEHIHCLYKLSDTVSMLDMLLSFAHACTLSDYVRPEFTDTLAIKQGWHPILEKISAEKPIANNTYVTEGSNFLIITGPNMSGKSTYLKQIALCQIMAQIGSYVPAEYSSFRIAKQIFTRISTDDDIETNSSTFMKEMKEIAYILHNANDKSLILIDELGRGTNTEEGIGICYAVCEYLLSLKAFTLFATHFLELCHIDALYPNVENMHFEVQHVKNTSRNKEAILYTYKLSKGLTEEKNYGLKAAEVSSLPPSIVLDAKEITTQITRQILQNQRSTPEMERQRAVYHLATRLVQTARNSQLDPDSLRIYLSNLKKKYKEDFPRTEQVPEKTEE
chain 2: MASLGANPRRTPQGPRPGAASSGFPSPAPVPGPREAEEEEVEEEEELAEIHLCVLWNSGYLGIAYYDTSDSTIHFMPDAPDHESLKLLQRVLDEINPQSVVTSAKQDENMTRFLGKLASQEHREPKRPEIIFLPSVDFGLEISKQRLLSGNYSFIPDAMTATEKILFLSSIIPFDCLLTVRALGGLLKFLGRRRIGVELEDYNVSVPILGFKKFMLTHLVNIDQDTYSVLQIFKSESHPSVYKVASGLKEGLSLFGILNRCHCKWGEKLLRLWFTRPTHDLGELSSRLDVIQFFLLPQNLDMAQMLHRLLGHIKNVPLILKRMKLSHTKVSDWQVLYKTVYSALGLRDACRSLPQSIQLFRDIAQEFSDDLHHIASLIGKVVDFEGSLAENRFTVLPNIDPEIDEKKRRLMGLPSFLTEVARKELENLDSRIPSCSVIYIPLIGFLLSIPRLPSMVEASDFEINGLDFMFLSEEKLHYRSARTKELDALLGDLHCEIRDQETLLMYQLQCQVLARAAVLTRVLDLASRLDVLLALASAARDYGYSRPRYSPQVLGVRIQNGRHPLMELCARTFVPNSTECGGDKGRVKVITGPNSSGKSIYLKQVGLITFMALVGSFVPAEEAEIGAVDAIFTRIHSCESISLGLSTFMIDLNQVAKAVNNATAQSLVLIDEFGKGTNTVDGLALLAAVLRHWLARGPTCPHIFVATNFLSLVQLQLLPQGPLVQYLTMETCEDGNDLVFFYQVCEGVAKASHASHTAAQAGLPDKLVARGKEVSDLIRSGKPIKPVKDLLKKNQMENCQTLVDKFMKLDLEDPNLDLNVFMSQEVLPAATSIL
- ratio to parent [2]: 0.08 arb. units

B2: Nuclease-deficient human EXO1 (D173A)-FLAG, full length (enzyme, UniProt Q9UQ84 1-846, looked up)
chain: T1 chain with D173A
notes: EXO1, human, from pFB-MBP-PP-EXO1(D173A)-1xFLAG; last residue at position 846; also called nuclease-dead EXO1 (D173A); source: Sf9, purified (amylose resin, PreScission cleavage, FLAG M2 resin); not shown: MBP, N-terminal, cleaved; FLAG, C-terminal, kept
- binding result (Human MutLγ (MLH1-MLH3)): binds

B4: EXO1 (D173A MIP)-FLAG (F506A and F507A in the MIP motif) (enzyme, human, UniProt Q9UQ84 1-846, looked up)
chain: T1 chain with D173A, F506A, F507A
notes: EXO1, human, derivative of pFB-MBP-PP-EXO1(D173A)-1xFLAG; also called EXO1 MIP mutants; MIP mutations; source: Sf9, purified (amylose resin, PreScission cleavage, FLAG M2 resin); not shown: MBP, N-terminal, cleaved; FLAG, C-terminal, kept
- binding result (Human MutLγ (MLH1-MLH3)): binds

From paper PMC12049449, “EXO1 promotes the meiotic MLH1-MLH3 endonuclease through conserved interactions with MLH1, MSH4 and DNA” (Nature Communications, 2025)
